Bridge positions count the residues as written; N and C are the ends. Square brackets hold non-standard residues; d marks the D form. Ends that are not written are not given here. Trp(1-Me) = Cn1cc(C[C@H](N)C(=O)O)c2ccccc21; NMeI = CC[C@H](C)[C@H](NC)C(=O)O; Orn = NCCC[C@H](N)C(=O)O; Sar = CNCC(=O)O
How the values were obtained:
[1] = target: C3b (biotinylated, captured site-specifically on a streptavidin chip) (UniProt P01024); experiment: SPR (Biacore 3000), single-cycle kinetics, biotinylated C3b on streptavidin chip, peptide as analyte, 1:1 Langmuir fit
[2] = target: C3b (biotinylated, captured site-specifically on a streptavidin chip) (UniProt P01024); experiment: SPR on immobilised C3b
[3] = target: C3b (biotinylated, captured site-specifically on a streptavidin chip) (UniProt P01024); experiment: SPR, single-cycle kinetics on immobilised C3b (method of Example 2)

B1: Compstatin 30 (Cp30): Sar-Ile-[Cys-Val-Trp(Me)-Gln-Asp-Trp-Sar-Ala-His-Arg-Cys]-mIle-NH2 (peptide)
peptide: GICVWQDWGAHRCI
modifications: Sar (N-methyl-Gly) at Xaa0 (N-terminus); Trp(Me) at position 4; Sar at position 8; mIle at position 13; C-terminal -NH2; cyclic via Cys2-Cys12 disulfide (compstatin position numbering)
- Kd [1]: 1.6 nM
- koff [1]: 0.0029 s⁻¹
- kon [1]: 1.9e+06 M⁻¹ s⁻¹

B2: Peptide 5: Phe-Ile-[Cys-Val-Trp(Me)-Gln-Asp-Trp-Sar-Ala-His-Arg-Cys]-mIle-NH2 (peptide)
peptide: FICV[Trp(1-Me)]QDW[Sar]AHRC[NMeI]-NH2
modifications: disulfide 3-13; N-terminus assumed
SMILES: CC[C@H](C)[C@H](NC(=O)[C@@H](N)Cc1ccccc1)C(=O)N[C@H]1CSSC[C@@H](C(=O)N(C)[C@H](C(N)=O)[C@@H](C)CC)NC(=O)[C@H](CCCNC(=N)N)NC(=O)[C@H](Cc2c[nH]cn2)NC(=O)[C@H](C)NC(=O)CN(C)C(=O)[C@H](Cc2c[nH]c3ccccc23)NC(=O)[C@H](CC(=O)O)NC(=O)[C@H](CCC(N)=O)NC(=O)[C@H](Cc2cn(C)c3ccccc23)NC(=O)[C@H](C(C)C)NC1=O
- Kd [1]: 1.6 nM
- koff [1]: 0.0033 s⁻¹
- kon [1]: 2.1e+06 M⁻¹ s⁻¹

B3: Peptide 6: Arg-Ile-[Cys-Val-Trp(Me)-Gln-Asp-Trp-Sar-Ala-His-Arg-Cys]-mIle-NH2 (peptide)
peptide: RICV[Trp(1-Me)]QDW[Sar]AHRC[NMeI]-NH2
modifications: disulfide 3-13; N-terminus assumed
SMILES: CC[C@H](C)[C@H](NC(=O)[C@@H](N)CCCNC(=N)N)C(=O)N[C@H]1CSSC[C@@H](C(=O)N(C)[C@H](C(N)=O)[C@@H](C)CC)NC(=O)[C@H](CCCNC(=N)N)NC(=O)[C@H](Cc2c[nH]cn2)NC(=O)[C@H](C)NC(=O)CN(C)C(=O)[C@H](Cc2c[nH]c3ccccc23)NC(=O)[C@H](CC(=O)O)NC(=O)[C@H](CCC(N)=O)NC(=O)[C@H](Cc2cn(C)c3ccccc23)NC(=O)[C@H](C(C)C)NC1=O
- Kd [1]: 1.7 nM
- koff [1]: 0.0029 s⁻¹
- kon [1]: 1.7e+06 M⁻¹ s⁻¹

B4: Peptide 7: Trp-Ile-[Cys-Val-Trp(Me)-Gln-Asp-Trp-Sar-Ala-His-Arg-Cys]-mIle-NH2 (peptide)
peptide: WICV[Trp(1-Me)]QDW[Sar]AHRC[NMeI]-NH2
modifications: disulfide 3-13; N-terminus assumed
SMILES: CC[C@H](C)[C@H](NC(=O)[C@@H](N)Cc1c[nH]c2ccccc12)C(=O)N[C@H]1CSSC[C@@H](C(=O)N(C)[C@H](C(N)=O)[C@@H](C)CC)NC(=O)[C@H](CCCNC(=N)N)NC(=O)[C@H](Cc2c[nH]cn2)NC(=O)[C@H](C)NC(=O)CN(C)C(=O)[C@H](Cc2c[nH]c3ccccc23)NC(=O)[C@H](CC(=O)O)NC(=O)[C@H](CCC(N)=O)NC(=O)[C@H](Cc2cn(C)c3ccccc23)NC(=O)[C@H](C(C)C)NC1=O
- Kd [1]: 2.2 nM
- koff [1]: 0.0036 s⁻¹
- kon [1]: 1.6e+06 M⁻¹ s⁻¹

B5: Peptide 8: Thr-Ile-[Cys-Val-Trp(Me)-Gln-Asp-Trp-Sar-Ala-His-Arg-Cys]-mIle-NH2 (peptide)
peptide: TICV[Trp(1-Me)]QDW[Sar]AHRC[NMeI]-NH2
modifications: disulfide 3-13; N-terminus assumed
SMILES: CC[C@H](C)[C@H](NC(=O)[C@@H](N)[C@@H](C)O)C(=O)N[C@H]1CSSC[C@@H](C(=O)N(C)[C@H](C(N)=O)[C@@H](C)CC)NC(=O)[C@H](CCCNC(=N)N)NC(=O)[C@H](Cc2c[nH]cn2)NC(=O)[C@H](C)NC(=O)CN(C)C(=O)[C@H](Cc2c[nH]c3ccccc23)NC(=O)[C@H](CC(=O)O)NC(=O)[C@H](CCC(N)=O)NC(=O)[C@H](Cc2cn(C)c3ccccc23)NC(=O)[C@H](C(C)C)NC1=O
- Kd [1]: 2.6 nM
- koff [1]: 0.0031 s⁻¹
- kon [1]: 1.2e+06 M⁻¹ s⁻¹

B6: Peptide 10: mPhe-Ile-[Cys-Val-Trp(Me)-Gln-Asp-Trp-Sar-Ala-His-Arg-Cys]-mIle-NH2 (peptide)
peptide: FICVWQDWGAHRCI
modifications: mPhe (N-methyl-Phe) at Xaa0; Trp(Me) at position 4; Sar at position 8; mIle at position 13; C-terminal -NH2; cyclic via Cys2-Cys12 disulfide (compstatin position numbering)
- Kd [1]: 1.8 nM
- koff [1]: 0.0029 s⁻¹
- kon [1]: 1.6e+06 M⁻¹ s⁻¹

B7: Peptide 11: mVal-Ile-[Cys-Val-Trp(Me)-Gln-Asp-Trp-Sar-Ala-His-Arg-Cys]-mIle-NH2 (peptide)
peptide: VICVWQDWGAHRCI
modifications: mVal (N-methyl-Val) at Xaa0; Trp(Me) at position 4; Sar at position 8; mIle at position 13; C-terminal -NH2; cyclic via Cys2-Cys12 disulfide (compstatin position numbering)
- Kd [1]: 1.9 nM
- koff [1]: 0.0035 s⁻¹
- kon [1]: 1.8e+06 M⁻¹ s⁻¹

B8: Peptide 12: mIle-Ile-[Cys-Val-Trp(Me)-Gln-Asp-Trp-Sar-Ala-His-Arg-Cys]-mIle-NH2 (peptide)
peptide: IICVWQDWGAHRCI
modifications: mIle (N-methyl-Ile; printed 'mlle') at Xaa0; Trp(Me) at position 4; Sar at position 8; mIle at position 13; C-terminal -NH2; cyclic via Cys2-Cys12 disulfide (compstatin position numbering)
- Kd [1]: 2.4 nM
- koff [1]: 0.0037 s⁻¹
- kon [1]: 1.6e+06 M⁻¹ s⁻¹

B9: Peptide 1: Me-Ile-[Cys-Val-Trp(Me)-Gln-Asp-Trp-Sar-Ala-His-Arg-Cys]-mIle-NH2 (peptide)
peptide: Me-ICVWQDW[Sar]AHRC[NMeI]-NH2
modifications: disulfide 2-12; not fully specified (residue 4); printed as Me-Ile-[Cys-Val-Trp(Me)-Gln-Asp-Trp-Sar-Ala-His-Arg-Cys]-mIle-NH2
- Kd [1]: 18.6 nM
- koff [1]: 0.0248 s⁻¹
- kon [1]: 1.3e+06 M⁻¹ s⁻¹

B10: Peptide 13: mAla-Ile-[Cys-Val-Trp(Me)-Gln-Asp-Trp-Sar-Ala-His-Arg-Cys]-mIle-NH2 (peptide)
peptide: AICVWQDWGAHRCI
modifications: mAla (N-methyl-Ala) at Xaa0; Trp(Me) at position 4; Sar at position 8; mIle at position 13; C-terminal -NH2; cyclic via Cys2-Cys12 disulfide (compstatin position numbering)
- Kd [1]: 2.5 nM
- koff [1]: 0.0034 s⁻¹
- kon [1]: 1.4e+06 M⁻¹ s⁻¹

B11: Peptide 19: Ac-Trp-[Cys-Val-Trp(Me)-Gln-Asp-Trp-Sar-Ala-His-Arg-Cys]-mIle-NH2 (peptide)
peptide: Ac-WCV[Trp(1-Me)]QDW[Sar]AHRC[NMeI]-NH2
modifications: disulfide 2-12
SMILES: CC[C@H](C)[C@@H](C(N)=O)N(C)C(=O)[C@@H]1CSSC[C@H](NC(=O)[C@H](Cc2c[nH]c3ccccc23)NC(C)=O)C(=O)N[C@@H](C(C)C)C(=O)N[C@@H](Cc2cn(C)c3ccccc23)C(=O)N[C@@H](CCC(N)=O)C(=O)N[C@@H](CC(=O)O)C(=O)N[C@@H](Cc2c[nH]c3ccccc23)C(=O)N(C)CC(=O)N[C@@H](C)C(=O)N[C@@H](Cc2c[nH]cn2)C(=O)N[C@@H](CCCNC(=N)N)C(=O)N1
- Kd [1]: 0.5 nM
- koff [1]: 0.0017 s⁻¹
- kon [1]: 3.8e+06 M⁻¹ s⁻¹

B12: Peptide 20: Tyr-Gly-[Cys-Val-Trp(Me)-Gln-Asp-Trp-Sar-Ala-His-Arg-Cys]-mIle-NH2 (peptide)
peptide: YGCV[Trp(1-Me)]QDW[Sar]AHRC[NMeI]-NH2
modifications: disulfide 3-13; N-terminus assumed
SMILES: CC[C@H](C)[C@@H](C(N)=O)N(C)C(=O)[C@@H]1CSSC[C@H](NC(=O)CNC(=O)[C@@H](N)Cc2ccc(O)cc2)C(=O)N[C@@H](C(C)C)C(=O)N[C@@H](Cc2cn(C)c3ccccc23)C(=O)N[C@@H](CCC(N)=O)C(=O)N[C@@H](CC(=O)O)C(=O)N[C@@H](Cc2c[nH]c3ccccc23)C(=O)N(C)CC(=O)N[C@@H](C)C(=O)N[C@@H](Cc2c[nH]cn2)C(=O)N[C@@H](CCCNC(=N)N)C(=O)N1
- fold weaker binding affinity than peptide 4 [2]: 3 fold
- Kd [1]: 3.5 nM
- koff [1]: 0.0073 s⁻¹
- kon [1]: 2.1e+06 M⁻¹ s⁻¹

Binder: [dY]ICV[Trp(1-Me)]QDW[Sar]AH[Orn]C[NMeI]-NH2 (disulfide 3-13) [Cp40 (11Orn)]
- Kd [3]: 0.8 nM
- koff [3]: 0.002 s⁻¹
- kon [3]: 2.5e+06 M⁻¹ s⁻¹

B13: Peptide 2: Gly-Ile-[Cys-Val-Trp(Me)-Gln-Asp-Trp-Sar-Ala-His-Arg-Cys]-mIle-NH2 (peptide)
peptide: GICV[Trp(1-Me)]QDW[Sar]AHRC[NMeI]-NH2
modifications: disulfide 3-13; N-terminus assumed
SMILES: CC[C@H](C)[C@H](NC(=O)CN)C(=O)N[C@H]1CSSC[C@@H](C(=O)N(C)[C@H](C(N)=O)[C@@H](C)CC)NC(=O)[C@H](CCCNC(=N)N)NC(=O)[C@H](Cc2c[nH]cn2)NC(=O)[C@H](C)NC(=O)CN(C)C(=O)[C@H](Cc2c[nH]c3ccccc23)NC(=O)[C@H](CC(=O)O)NC(=O)[C@H](CCC(N)=O)NC(=O)[C@H](Cc2cn(C)c3ccccc23)NC(=O)[C@H](C(C)C)NC1=O
- Kd [1]: 2.5 nM
- koff [1]: 0.0029 s⁻¹
- kon [1]: 1.2e+06 M⁻¹ s⁻¹

B14: Cp40 (6Asn) (peptide)
peptide: [dY]ICV[Trp(1-Me)]QNW[Sar]AHRC[NMeI]-NH2
modifications: disulfide 3-13; N-terminus assumed
SMILES: CC[C@H](C)[C@H](NC(=O)[C@H](N)Cc1ccc(O)cc1)C(=O)N[C@H]1CSSC[C@@H](C(=O)N(C)[C@H](C(N)=O)[C@@H](C)CC)NC(=O)[C@H](CCCNC(=N)N)NC(=O)[C@H](Cc2c[nH]cn2)NC(=O)[C@H](C)NC(=O)CN(C)C(=O)[C@H](Cc2c[nH]c3ccccc23)NC(=O)[C@H](CC(N)=O)NC(=O)[C@H](CCC(N)=O)NC(=O)[C@H](Cc2cn(C)c3ccccc23)NC(=O)[C@H](C(C)C)NC1=O
- Kd [3]: 3 nM
- koff [3]: 0.0028 s⁻¹
- kon [3]: 900000 M⁻¹ s⁻¹

Binder: [dY]ICV[Trp(1-Me)]QNW[Sar]AH[Orn]C[NMeI]-NH2 (disulfide 3-13) [Cp40 (11Orn 6Asn)]
- Kd [3]: 1.5 nM
- koff [3]: 0.0028 s⁻¹
- kon [3]: 2e+06 M⁻¹ s⁻¹

Reference: US20210032291A1, “Compstatin Analogs With Improved Pharmacokinetic Properties” (The Trustees of the University of Pennsylvania, priority 2011, published 2021)
